These results are taken from patent publication US20190062420A1 (Janssen / Centocor, published 2019).

The target in assay [1] is T1, human FcγRIIIA (NM_000569) expressed on cells (human, UniProt P08637 17-254).
T1 construct: Transiently expressed on Expi293F cells; also used here for FcγRIIIA on the engineered effector cells of the ADCC reporter bioassay (Promega); also called FcγIIIA
The experiment in a line: flow cytometry; Expi293F cells transfected with FcγRIIIA. As for the experimental part: (§1) Plasmids expressing cDNAs encoding human FcγRI (NM_000566) (SEQ ID NO: 44), FcγRIIA (NM_021642) (SEQ ID NO: 2), FcγRIIB (NM_004001) (SEQ ID NO: 3), and FcγRIIIA (NM_000569) (SEQ ID NO: 45) (Origene) were transiently transfected into Expi293F cells by ExpiFectamine293 transfection kit (Life Technologies). Flow cytometry assays were performed 48 h after transfection.
(§2) 2×10⁵ cells per well were seeded in 96-well plate and blocked in BSA Stain Buffer (BD Biosciences, San Jose, USA) for 30 min at 4° C. Cells were incubated with test mAbtyrin on ice for 1.5 h at 4° C. After being washed twice with BSA stain buffer, the cells were incubated with R-PE labeled anti-human or anti-mouse IgG secondary antibody (Jackson Immunoresearch Laboratories) for 45 min at 4° C. The cells were washed twice in stain buffer and then resuspended in 150 μL of Stain Buffer containing 1:200 diluted DRAQ7 live/dead stain (Cell Signaling Technology, Danvers, USA). PE and DRAQ7 signals of the stained cells were detected by Miltenyi MACSQuant flow cytometer (Miltenyi Biotec, Auburn, USA) using B2 and B4 channel respectively. Live cells were gated on DRAQ7 exclusion and the geometric mean fluorescence signals were determined for at least 10,000 live events collected. FlowJo software (Tree Star) was used for analysis. Data was plotted as the logarithm of antibody concentration versus mean fluorescence signals. Nonlinear regression analysis was performed by GraphPad Prism 6 (GraphPad Software, Inc.) and EC₅₀ values were calculated.

Assay [2] deals with T2, human FcγRIIA (NM_021642) expressed on cells (human, UniProt P12318 36-317).
T2 sequence: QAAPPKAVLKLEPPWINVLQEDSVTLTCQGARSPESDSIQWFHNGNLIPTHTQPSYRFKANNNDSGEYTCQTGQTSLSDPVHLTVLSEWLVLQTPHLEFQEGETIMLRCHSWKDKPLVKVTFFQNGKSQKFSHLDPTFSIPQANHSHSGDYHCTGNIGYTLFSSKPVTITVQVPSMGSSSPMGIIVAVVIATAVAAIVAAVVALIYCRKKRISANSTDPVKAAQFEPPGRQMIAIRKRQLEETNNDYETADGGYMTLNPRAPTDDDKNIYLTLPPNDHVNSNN
The experiment in a line: cell-based or functional assay.

Assay [3] deals with T2, human FcγRIIA (NM_021642) expressed on …. Kind of assay: flow cytometry; Expi293F cells transfected with FcγRIIA. As for the experimental part: as §1, §2
A general note: A flow cytometer gives signals particle by particle.

Assay [4] concerns the target T3, human FcγRIIB (NM_004001) expressed on cells (human, UniProt P31994 43-310).
T3 construct: Transiently expressed on Expi293F cells; also called Expi293F FcγRIIB; HEK293F cells expressing FcγRIIB
T3 sequence: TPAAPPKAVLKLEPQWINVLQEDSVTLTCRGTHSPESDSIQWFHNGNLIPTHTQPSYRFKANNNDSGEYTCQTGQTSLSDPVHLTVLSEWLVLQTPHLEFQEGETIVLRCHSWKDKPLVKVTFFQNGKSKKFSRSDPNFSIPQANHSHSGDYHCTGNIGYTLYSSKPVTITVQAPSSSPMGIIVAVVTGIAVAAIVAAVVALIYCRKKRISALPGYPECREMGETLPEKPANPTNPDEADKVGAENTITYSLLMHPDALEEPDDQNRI
The experiment in a line: flow cytometry; Expi293F cells transfected with FcγRIIB. As for the experimental part:
as §1, §2

Assay [5] has as its target T3, human FcγRIIB (NM_004001) expressed on …. Kind of assay: flow cytometry; Raji cells (express predominantly FcγRIIB). Summed up: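 Raji B cells, predominantly FcγRIIB-expressing, BSA-blocked, then incubated with mAbtyrin titrations 1.5 h at 4° C. Bound antibody detected with PE-labeled anti-human IgG F(ab′) 45 min at 4° C. Geometric mean fluorescence from ≥10,000 DRAQ7-excluded live cells; EC₅₀ by nonlinear regression of log concentration.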

The target in a further assay is T4, FcγRIIA protein (human, UniProt P12318 36-217, biotinylated (SureLINK Biotin Kit) in the ELISA of Example 1).
T4 construct: Soluble/recombinant antigen used in ELISA; also called bt-FcγRIIA; recombinant FcγRIIA protein
T4 sequence: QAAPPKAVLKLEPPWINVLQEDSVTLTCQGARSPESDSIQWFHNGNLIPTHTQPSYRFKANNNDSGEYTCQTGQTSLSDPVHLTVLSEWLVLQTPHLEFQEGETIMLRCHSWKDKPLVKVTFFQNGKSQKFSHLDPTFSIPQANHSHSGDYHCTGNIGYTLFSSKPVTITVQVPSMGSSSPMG
Kind of assay: ELISA; FcγRIIA protein coated on plate, anti-human IgG-HRP detection. On the procedure:
Effect of the mAbtyrins on T cell activation was evaluated. Briefly, recombinant FcγRIIB or FcγRIIA protein was coated on the plate to provide the crosslinking activity. For T cell activation assay, 100 μL of 30 ng/mL anti-CD3 antibody (OKT3) and 1 μg/mL FcγRIIB or FcγRIIA protein in DPBS were coated in U-bottomed 96-well tissue culture plate overnight. CD4 positive T cells were isolated from PBMC by negative selection. OX40 expression was induced by culturing the isolated T cells in the presence of 1 μg/mL PHA overnight. On the assay day, the coating solution in the plate were aspirated and 150 μL RPMI media was added to block the plate. The cultured T cells were washed three times by RPMI culture media and between 25,000 to 50,000 CD4 positive T cells were seeded in each well in the assay plate. Test mAbtyrins were added to the cells and the plate was incubated for 3 days. T cell activation was assessed by the induction of IFNγ or TNFα production, which was quantitated by human IFNγ or TNFα ELISA detection kit (Biolegend). Prior to T cell activation assay, the binding affinity of mAbtyrins to immobilized FcγRIIB or FcγRIIA protein were evaluated by an ELISA assay. […] The binding of mAbtyrins to immobilized FcγRIIB or FcγRIIA protein were detected by HRP-conjugated anti-Human IgG(γ) secondary antibody and quantitated by ELISA assay using TMB substrate.

T1 sequence (P08637 17-254 limits assumed): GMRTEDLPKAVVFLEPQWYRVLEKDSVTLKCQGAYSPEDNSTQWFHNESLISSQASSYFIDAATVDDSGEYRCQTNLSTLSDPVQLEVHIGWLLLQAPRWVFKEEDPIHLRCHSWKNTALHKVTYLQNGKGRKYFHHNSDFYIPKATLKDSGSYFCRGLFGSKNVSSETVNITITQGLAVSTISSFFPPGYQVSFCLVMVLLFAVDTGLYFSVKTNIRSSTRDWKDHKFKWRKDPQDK

B1: OX40SF2IgG2sigma_R2BS29_HC-C (bispecific antibody)
heavy: QVQLVQSGAEVKKPGSSVKVSCKASGYTFKDYTMHWVRQAPGQGLEWIGGIYPNNGGSTYNQNFKDRVTLTADKSTSTAYMELSSLRSEDTAVYYCARMGYHGPHLDFDVWGQGTTVTVSSASTKGPSVFPLAPCSRSTSESTAALGCLVKDYFPEPVTVSWNSGALTSGVHTFPAVLQSSGLYSLSSVVTVPSSNFGTQTYTCNVDHKPSNTKVDKTVERKCCVECPPCPAPPAAASSVFLFPPKPKDTLMISRTPEVTCVVVDVSAEDPEVQFNWYVDGVEVHNAKTKPREEQFNSTFRVVSVLTVLHQDWLNGKEYKCKVSNKGLPSSIEKTISKTKGQPREPQVYTLPPSREEMTKNQVSLTCLVKGFYPSDIAVEWESNGQPENNYKTTPPMLDSDGSFFLYSKLTVDKSRWQQGNVFSCSVMHEALHNHYTQKSLSLSPGKGGGGGSGGGGSGGGGSGGGGSLPAPKNLVVSRVTEDSARLSWTAPDAAFDSFPIYYWEYRVGGEAIVLTVPGSERSYDLTGLKPGTEYFVYINGVKGGEESRPLSAIFTT
light: DIQMTQSPSSLSASVGDRVTITCKASQDVGAAVAWYQQKPGKAPKLLIYWASTRHTGVPSRFSGSGSGTDFTLTISSLQPEDFATYYCQQYINYPLTFGGGTKVEIKRTVAAPSVFIFPPSDEQLKSGTASVVCLLNNFYPREAKVQWKVDNALQSGNSQESVTEQDSKDSTYSLSSTLTLSKADYEKHKVYACEVTHQGLSSPVTKSFNRGEC
notes: mAbtyrin: anti-OX40 antibody OX40SF2, effector silent IgG2sigma, with linker and R2BS29 FN3 domain at the C-terminus of the heavy chain; also called mAbtyrin
With B1, the EC50 is greater than 10 µg/mL in assay [1], 0.066 µg/mL in assay [3], 1.52 µg/mL in assay [4] and 1.44 µg/mL in assay [5]. Further, in assay [2], the “% OX40 cell killed by macrophages (ADCP, 1 µg/ml)” value is 88%. Moreover, the “Binding to Raji cells mean signals at 10 µg/ml” value in assay [5] stood at 11900 mean fluorescence signal.

B2: OX40SF2IgG2sigma (antibody)
heavy: QVQLVQSGAEVKKPGSSVKVSCKASGYTFKDYTMHWVRQAPGQGLEWIGGIYPNNGGSTYNQNFKDRVTLTADKSTSTAYMELSSLRSEDTAVYYCARMGYHGPHLDFDVWGQGTTVTVSSASTKGPSVFPLAPCSRSTSESTAALGCLVKDYFPEPVTVSWNSGALTSGVHTFPAVLQSSGLYSLSSVVTVPSSNFGTQTYTCNVDHKPSNTKVDKTVERKCCVECPPCPAPPAAASSVFLFPPKPKDTLMISRTPEVTCVVVDVSAEDPEVQFNWYVDGVEVHNAKTKPREEQFNSTFRVVSVLTVLHQDWLNGKEYKCKVSNKGLPSSIEKTISKTKGQPREPQVYTLPPSREEMTKNQVSLTCLVKGFYPSDIAVEWESNGQPENNYKTTPPMLDSDGSFFLYSKLTVDKSRWQQGNVFSCSVMHEALHNHYTQKSLSLSPGK
light: DIQMTQSPSSLSASVGDRVTITCKASQDVGAAVAWYQQKPGKAPKLLIYWASTRHTGVPSRFSGSGSGTDFTLTISSLQPEDFATYYCQQYINYPLTFGGGTKVEIKRTVAAPSVFIFPPSDEQLKSGTASVVCLLNNFYPREAKVQWKVDNALQSGNSQESVTEQDSKDSTYSLSSTLTLSKADYEKHKVYACEVTHQGLSSPVTKSFNRGEC
notes: Anti-OX40 antibody, IgG2 sigma isotype (effector silent Fc: V234A, G237A, P238S, H268A, V309L, A330S, P331S against wild type IgG2); control without FN3 domain; also called parental antibody; parental OX40 antibody
In the case of B2, in the assay with FcγRIIA protein, the binding result was “no binding”. In addition, the “% OX40 cell killed by macrophages (ADCP, 1 µg/ml)” value in assay [2] turned out to be 12%. Further, in assay [5], the “Binding to Raji cells mean signals at 10 µg/ml” value amounted to 330 mean fluorescence signal and the EC50 is greater than 10 µg/mL.

B3: OX40SF2IgG1 (antibody)
heavy: not shown
light: DIQMTQSPSSLSASVGDRVTITCKASQDVGAAVAWYQQKPGKAPKLLIYWASTRHTGVPSRFSGSGSGTDFTLTISSLQPEDFATYYCQQYINYPLTFGGGTKVEIKRTVAAPSVFIFPPSDEQLKSGTASVVCLLNNFYPREAKVQWKVDNALQSGNSQESVTEQDSKDSTYSLSSTLTLSKADYEKHKVYACEVTHQGLSSPVTKSFNRGEC
notes: Anti-OX40 antibody, wild-type IgG1; control without FN3 domain
B3: the EC50 came to 0.339 µg/mL in assay [1] and 3.3 µg/mL in assay [3].

As a reminder, the EC50 is the midpoint of the concentration-response curve.
